5 molecules from US20170052184A1 (published 2017) can be followed below.

Substitutions are numbered along the chain they refer to. Ends that are not written are not given here.

The target in experiment [1] is T1, HCV Core1-169 recombinant antigen (hepatitis C virus (HCV-1), UniProt P26664 1-169).
T1 sequence: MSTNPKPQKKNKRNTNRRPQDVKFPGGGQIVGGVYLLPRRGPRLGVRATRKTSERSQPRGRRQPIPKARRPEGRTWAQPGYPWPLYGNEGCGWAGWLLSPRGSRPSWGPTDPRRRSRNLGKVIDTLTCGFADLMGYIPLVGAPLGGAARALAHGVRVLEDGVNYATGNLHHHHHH
As to the kind of experiment: sandwich EIA, 25 ng/ml core1-169; capture mAb 208A-692.

Experiment [2] concerns the target T1, HCV Core1-169 recombinant antigen. In words: sandwich EIA, 25 ng/ml core1-169; capture mAb C11-7.
Experiment [3] shares this target. As to the kind of experiment: sandwich EIA, 25 ng/ml core1-169; capture mAb 208A-557.
For experiment [4] the target is unchanged. In words: sandwich EIA, 25 ng/ml core1-169; capture mAb 208A-293.
The target is the same in experiment [5]. In words: sandwich EIA, 25 ng/ml core1-169; capture mAb 208B-1096.
For experiment [6] the target is unchanged. In words: sandwich EIA, 25 ng/ml core1-169; capture mAb 208B-612-226.
For experiment [7] the target is unchanged. In words: sandwich EIA, 25 ng/ml core1-169; capture NC capture mAb.
The target is the same in experiment [8]. As to the kind of experiment: sandwich EIA, 25 ng/ml core1-169; capture mAb 208A-110.
Experiment [9] shares this target. In words: sandwich EIA, 25 ng/ml core1-169; capture mAb 208B-395-334.
Experiment [10] has the same target. In words: sandwich EIA, 25 ng/ml core1-169; capture mAb 208A-207-271.
For experiment [11] the target is unchanged. As to the kind of experiment: sandwich EIA, 25 ng/ml core1-169; capture mAb 208B-741.
For experiment [12] the target is unchanged. As to the kind of experiment: sandwich EIA, 25 ng/ml core1-169; capture mAb C11-9.
Experiment [13] addresses T2, C113WT biotin labeled HCV core peptide (Hepatitis C virus, also: biotin label, position not given here).
T2 peptide: RGSRPSWGPTD
As to the kind of experiment: EIA, captured mAb + biotin peptide.

For experiment [14], the target named is T3, C113T110N biotin labeled HCV core peptide (Hepatitis C virus, also: biotin label, position not given here).
T3 peptide: RGSRPSWGPND
In words: EIA, captured mAb + biotin peptide.

B1: 208B-612-226 monoclonal antibody (antibody, V domains shown)
VH: EVQLQQSGPELVKPGASVKMSCKASGYRFTSYVMHWVRQKPGQGLEWIGYIDPHNDDTKYSEKFRGKATLTSDKSSTTAYMELSSLTSEDSAVYYCVRYSYDRDYSPMDYWGQGTSVTVSS
VL: QIVLTQSPTLMSASPGEKVTMTCSASSTVTYIYWYQQKPGSSPRLWMYDTFNLVSGVPARFSGSRSGTSYFLTISSMEGEDAATYYCQQYSDSPYTFGGGTKLEIKR
For the molecule B1, the OD492 nm in experiment [1] came out at 0.18 OD492; in experiment [2], 1.52 OD492; in experiment [3], 0.23 OD492; in [4], 0.28 OD492; in experiment [5], 0.7 OD492; in [6], 0.23 OD492. For the same molecule, the OD492 nm in [7] stood at 0.21 OD492; in experiment [8] it was 0.26 OD492; in experiment [9], 0.83 OD492; in experiment [10], 0.24 OD492; in [11] it was 0.23 OD492; in experiment [12] it was 0.64 OD492.

B2: Neo4 monoclonal antibody (antibody, V domains shown)
VH: QIQLKESGPAVIKPSQSLSLTCIVSGFSITSSVYCWQWIRQPPGKGLEWMGRICYDGSVDYSPSITSRGTISRDTSLNKVFFQLSSVTNEDTAMYYCSRENHIDYYDTTYPSFDVWGAGTTVTVSS
VL: DIVLTQSPASLIVSLGQRATISCRASKSVNEYGYTYMHWYQQKPGLPPKLLIYLASNLDSGVPARFSGSGSGTDFTLNIHPVEEEDAATYYCQHSRELPYTFGGGTKLEIKR
notes: also called HCV Neo4
As to B2, the binding result in experiment [13] and in experiment [14] was “no binding” in each case.

B3: 208A-207-271 monoclonal antibody (antibody, V domains shown)
VH: QGQLQQPGAEFVKPGASLKLSCRASGYTFTSYWIHWVKQRPGQGLEWIGEIDPSDSYINQNQKFRGKATLTVDKSSSTAYMELSGLTSEDSAVYYCARHYYGVLDSWGQGTTLTVSS
VL: DIVLTQSPATLSVTPGDRVSLSCRASQRIYNYLHWYQQKSHESPRLLTKYASQSISGIPSRFSGSGSGTDFILTINSVETEDFGMYFCQQSNSWPLTFGAGTKLELRR
On to B3, for which the OD492 nm worked out at 0.42 OD492 in [1]; 2.47 OD492 in experiment [2]; 0.82 OD492 in experiment [3]; 0.42 OD492 in experiment [4]; 0.33 OD492 in [5]; 0.33 OD492 in experiment [6]. The OD492 nm was found to be 0.37 OD492 in experiment [7]; 0.38 OD492 in experiment [8]; 0.37 OD492 in [9]; 0.36 OD492 in experiment [10]; 0.3 OD492 in experiment [11]; 2.2 OD492 in [12].

B4: 208B-395-334 monoclonal antibody (antibody, V domains shown)
VH: QVQLQQSGAGLAKPGASVKMSCKASGYTFTANKMHWTKQRPGQGLEWIGYIDPSSGYTQYNHKIQDKATLTADTSSSTAYMQLSSLTFEDSAVYYCTNFAYWGQGTLVTVSA
VL: B3 VL with T48I
In the case of B4, the OD492 nm in [1] is 0.15 OD492; in experiment [2], 0.89 OD492; in experiment [3] it was 0.21 OD492; in experiment [4], 0.26 OD492; in [5] it was 0.23 OD492; in experiment [6], 0.26 OD492. Further, the OD492 nm in experiment [7] came out at 0.2 OD492; in [8] it was 0.21 OD492; in experiment [9], 0.23 OD492; in experiment [10], 0.2 OD492; in [11], 0.21 OD492; in experiment [12], 0.32 OD492.

B5: HCV 208B-1096 monoclonal antibody (antibody, V domains shown)
VH: B4 VH with T37A, Q59E, D66Y, S85T
VL: DIVMTQTPLTLSVTIGQPASISCKSSQSLLFTNGKTYLNWFLQRPGQSPKRLIYLLSKLDSGVPDRFSGSGSGTDFTLKISRVEAEDLGVYYCLQSTYFPLTFGAGTKLELKR
Turning to B5, the OD492 nm came out at 0.15 OD492 in [1]; 1.06 OD492 in [2]; 0.17 OD492 in [3]; 0.24 OD492 in [4]; 0.26 OD492 in experiment [5]; 0.24 OD492 in [6]. In addition, the OD492 nm in [7] is 0.17 OD492; in experiment [8], 0.19 OD492; in experiment [9] it was 0.2 OD492; in experiment [10], 0.18 OD492; in experiment [11], 0.23 OD492; in [12], 0.33 OD492.
